Test results published in patent US20180362632A1 (published 2018).
Like-named read-outs stand apart in the source and are kept apart here.

B1: Hu50C5-23 (antibody, V domains shown)
VH: EVQLVQSGAEVKKPGSSVKVSCKASGYIFTPYSIHWVRQAPGQGLEWIGYINPSTGYIEYNQHFKDRTTLTADKSTSTAYMELRSLRSEDTAVYYCARGGDYEGYFDYWGQGTTVTVSS
VL: DIQMTQSPSSLSASVGDRVTITCRLNENIYSFLAWYQQKPGKAPKLLVYNAETLAEDVPSRFSGSGSGTDFTLTISSLQPEDFATYYCQQHYGTPYTFGGGTKVEIK
B2: Hu50C5-10 (antibody, V domains shown)
VH: EVQLVQSGAEVKKPGSSVKVSCKASGYIFSPYSIHWVRQAPGQGLEWMGYINPSTGYIEYNQHFKDRVTITADKSTSTAYMELRSLRSEDTAVYYCARGGDYEGYFDYWGQGTTVTVSS
VL: DIQMTQSPSSLSASVGDRVTITCRLNENIYSFLAWYQQKPGKSPKLLVYNAETLAEDVPSRFSGSGSGTQFTLTISSLQPEDFATYYCQQHYGTPYTFGGGTKVEIK
B3: Hu50C5-5 (antibody, V domains shown)
VH: EVQLVQSGAEVKKPGSSVKVSCKASGGTFSPYSIHWVRQAPGQGLEWMGYINPSTGYIEYNQHFKDRVTITADKSTSTAYMELRSLRSEDTAVYYCARGGDYEGYFDYWGQGTTVTVSS
VL: DIQMTQSPSSLSASVGDRVTITCRLNENIYSFLAWYQQKPGKSPKLLVYNAETLAEDVPSRFSGSGSGTQFTLTISSLQPEDFATYYCQQHYGTPYTFGGGTKVEIK
B4: Hu50C5-16 (antibody, V domains shown)
VH: EVQLVQSGAEVKKPGSSVKVSCKASGYIFSPYSIHWVRQAPGQGLEWIGYINPSTGYIEYNQHFKDRTTLTADKSTSTAYMELRSLRSEDTAVYYCARGGDYEGYFDYWGQGTTVTVSS
VL: DIQMTQSPSSLSASVGDRVTITCRLNENIYSFLAWYQQKPGKAPKLLIYNAETLAEGVPSRFSGSGSGTDFTLTISSLQPEDFATYYCQQHYGTPYTFGGGTKVEIK
B5: Hu50C5-22 (antibody, V domains shown)
VH: EVQLVQSGAEVKKPGSSVKVSCKASGYIFTPYSIHWVRQAPGQGLEWIGYINPSTGYIEYNQHFKDRTTLTADKSTSTAYMELRSLRSEDTAVYYCARGGDYEGYFDYWGQGTTVTVSS
VL: DIQMTQSPSSLSASVGDRVTITCRLNENIYSFLAWYQQKPGKAPKLLVYNAETLAEGVPSRFSGSGSGTDFTLTISSLQPEDFATYYCQQHYGTPYTFGGGTKVEIK
B6: Hu50C5-12 (antibody, V domains shown)
VH: EVQLVQSGAEVKKPGSSVKVSCKASGYIFSPYSIHWVRQAPGQGLEWIGYINPSTGYIEYNQHFKDRVTITADKSTSTAYMELRSLRSEDTAVYYCARGGDYEGYFDYWGQGTTVTVSS
VL: DIQMTQSPSSLSASVGDRVTITCRLNENIYSFLAWYQQKPGKAPKLLVYNAETLAEGVPSRFSGSGSGTDFTLTISSLQPEDFATYYCQQHYGTPYTFGGGTKVEIK
B7: Hu50C5-4 (antibody, V domains shown)
VH: EVQLVQSGAEVKKPGSSVKVSCKASGGTFSPYSIHWVRQAPGQGLEWMGYINPSTGYIEYNQHFKDRVTITADKSTSTAYMELRSLRSEDTAVYYCARGGDYEGYFDYWGQGTTVTVSS
VL: DIQMTQSPSSLSASVGDRVTITCRLNENIYSFLAWYQQKPGKAPKLLVYNAETLAEDVPSRFSGSGSGTQFTLTISSLQPEDFATYYCQQHYGTPYTFGGGTKVEIK
B8: Hu50C5-20 (antibody, V domains shown)
VH: EVQLVQSGAEVKKPGSSVKVSCKASGYIFSPYSIHWVRQAPGQGLEWIGYINPSTGYIEYNQHFKDRTTLTADKSTSTAYMELRSLRSEDTAVYYCARGGDYEGYFDYWGQGTTVTVSS
VL: DIQMTQSPSSLSASVGDRVTITCRLNENIYSFLAWYQQKPGKSPKLLVYNAETLAEDVPSRFSGSGSGTQFTLTISSLQPEDFATYYCQQHYGTPYTFGGGTKVEIK
B9: Hu50C5-14 (antibody, V domains shown)
VH: EVQLVQSGAEVKKPGSSVKVSCKASGYIFSPYSIHWVRQAPGQGLEWIGYINPSTGYIEYNQHFKDRVTITADKSTSTAYMELRSLRSEDTAVYYCARGGDYEGYFDYWGQGTTVTVSS
VL: DIQMTQSPSSLSASVGDRVTITCRLNENIYSFLAWYQQKPGKAPKLLVYNAETLAEDVPSRFSGSGSGTQFTLTISSLQPEDFATYYCQQHYGTPYTFGGGTKVEIK
B10: Hu50C5-3 (antibody, V domains shown)
VH: EVQLVQSGAEVKKPGSSVKVSCKASGGTFSPYSIHWVRQAPGQGLEWMGYINPSTGYIEYNQHFKDRVTITADKSTSTAYMELRSLRSEDTAVYYCARGGDYEGYFDYWGQGTTVTVSS
VL: DIQMTQSPSSLSASVGDRVTITCRLNENIYSFLAWYQQKPGKAPKLLVYNAETLAEDVPSRFSGSGSGTDFTLTISSLQPEDFATYYCQQHYGTPYTFGGGTKVEIK
B11: Hu50C5-8 (antibody, V domains shown)
VH: EVQLVQSGAEVKKPGSSVKVSCKASGYIFSPYSIHWVRQAPGQGLEWMGYINPSTGYIEYNQHFKDRVTITADKSTSTAYMELRSLRSEDTAVYYCARGGDYEGYFDYWGQGTTVTVSS
VL: DIQMTQSPSSLSASVGDRVTITCRLNENIYSFLAWYQQKPGKAPKLLVYNAETLAEDVPSRFSGSGSGTDFTLTISSLQPEDFATYYCQQHYGTPYTFGGGTKVEIK
B12: Hu50C5-17 (antibody, V domains shown)
VH: EVQLVQSGAEVKKPGSSVKVSCKASGYIFSPYSIHWVRQAPGQGLEWIGYINPSTGYIEYNQHFKDRTTLTADKSTSTAYMELRSLRSEDTAVYYCARGGDYEGYFDYWGQGTTVTVSS
VL: DIQMTQSPSSLSASVGDRVTITCRLNENIYSFLAWYQQKPGKAPKLLVYNAETLAEGVPSRFSGSGSGTDFTLTISSLQPEDFATYYCQQHYGTPYTFGGGTKVEIK
B13: Hu50C5-1 (antibody, V domains shown)
VH: EVQLVQSGAEVKKPGSSVKVSCKASGGTFSPYSIHWVRQAPGQGLEWMGYINPSTGYIEYNQHFKDRVTITADKSTSTAYMELRSLRSEDTAVYYCARGGDYEGYFDYWGQGTTVTVSS
VL: DIQMTQSPSSLSASVGDRVTITCRLNENIYSFLAWYQQKPGKAPKLLIYNAETLAEGVPSRFSGSGSGTDFTLTISSLQPEDFATYYCQQHYGTPYTFGGGTKVEIK
B14: Hu50C5-11 (antibody, V domains shown)
VH: EVQLVQSGAEVKKPGSSVKVSCKASGYIFSPYSIHWVRQAPGQGLEWIGYINPSTGYIEYNQHFKDRVTITADKSTSTAYMELRSLRSEDTAVYYCARGGDYEGYFDYWGQGTTVTVSS
VL: DIQMTQSPSSLSASVGDRVTITCRLNENIYSFLAWYQQKPGKAPKLLIYNAETLAEGVPSRFSGSGSGTDFTLTISSLQPEDFATYYCQQHYGTPYTFGGGTKVEIK
B15: Hu50C5-21 (antibody, V domains shown)
VH: EVQLVQSGAEVKKPGSSVKVSCKASGYIFTPYSIHWVRQAPGQGLEWIGYINPSTGYIEYNQHFKDRTTLTADKSTSTAYMELRSLRSEDTAVYYCARGGDYEGYFDYWGQGTTVTVSS
VL: DIQMTQSPSSLSASVGDRVTITCRLNENIYSFLAWYQQKPGKAPKLLIYNAETLAEGVPSRFSGSGSGTDFTLTISSLQPEDFATYYCQQHYGTPYTFGGGTKVEIK
B16: Hu50C5-6 (antibody, V domains shown)
VH: EVQLVQSGAEVKKPGSSVKVSCKASGYIFSPYSIHWVRQAPGQGLEWMGYINPSTGYIEYNQHFKDRVTITADKSTSTAYMELRSLRSEDTAVYYCARGGDYEGYFDYWGQGTTVTVSS
VL: DIQMTQSPSSLSASVGDRVTITCRLNENIYSFLAWYQQKPGKAPKLLIYNAETLAEGVPSRFSGSGSGTDFTLTISSLQPEDFATYYCQQHYGTPYTFGGGTKVEIK
B17: Hu50C5-24 (antibody, V domains shown)
VH: EVQLVQSGAEVKKPGSSVKVSCKASGYIFTPYSIHWVRQAPGQGLEWIGYINPSTGYIEYNQHFKDRTTLTADKSTSTAYMELRSLRSEDTAVYYCARGGDYEGYFDYWGQGTTVTVSS
VL: DIQMTQSPSSLSASVGDRVTITCRLNENIYSFLAWYQQKPGKAPKLLVYNAETLAEDVPSRFSGSGSGTQFTLTISSLQPEDFATYYCQQHYGTPYTFGGGTKVEIK
B18: Hu50C5-18 (antibody, V domains shown)
VH: EVQLVQSGAEVKKPGSSVKVSCKASGYIFSPYSIHWVRQAPGQGLEWIGYINPSTGYIEYNQHFKDRTTLTADKSTSTAYMELRSLRSEDTAVYYCARGGDYEGYFDYWGQGTTVTVSS
VL: DIQMTQSPSSLSASVGDRVTITCRLNENIYSFLAWYQQKPGKAPKLLVYNAETLAEDVPSRFSGSGSGTDFTLTISSLQPEDFATYYCQQHYGTPYTFGGGTKVEIK
B19: Hu50C5-7 (antibody, V domains shown)
VH: EVQLVQSGAEVKKPGSSVKVSCKASGYIFSPYSIHWVRQAPGQGLEWMGYINPSTGYIEYNQHFKDRVTITADKSTSTAYMELRSLRSEDTAVYYCARGGDYEGYFDYWGQGTTVTVSS
VL: DIQMTQSPSSLSASVGDRVTITCRLNENIYSFLAWYQQKPGKAPKLLVYNAETLAEGVPSRFSGSGSGTDFTLTISSLQPEDFATYYCQQHYGTPYTFGGGTKVEIK
B20: Hu50C5-15 (antibody, V domains shown)
VH: EVQLVQSGAEVKKPGSSVKVSCKASGYIFSPYSIHWVRQAPGQGLEWIGYINPSTGYIEYNQHFKDRVTITADKSTSTAYMELRSLRSEDTAVYYCARGGDYEGYFDYWGQGTTVTVSS
VL: DIQMTQSPSSLSASVGDRVTITCRLNENIYSFLAWYQQKPGKSPKLLVYNAETLAEDVPSRFSGSGSGTQFTLTISSLQPEDFATYYCQQHYGTPYTFGGGTKVEIK
B21: Hu50C5-9 (antibody, V domains shown)
VH: EVQLVQSGAEVKKPGSSVKVSCKASGYIFSPYSIHWVRQAPGQGLEWMGYINPSTGYIEYNQHFKDRVTITADKSTSTAYMELRSLRSEDTAVYYCARGGDYEGYFDYWGQGTTVTVSS
VL: DIQMTQSPSSLSASVGDRVTITCRLNENIYSFLAWYQQKPGKAPKLLVYNAETLAEDVPSRFSGSGSGTQFTLTISSLQPEDFATYYCQQHYGTPYTFGGGTKVEIK
B22: Hu50C5-19 (antibody, V domains shown)
VH: EVQLVQSGAEVKKPGSSVKVSCKASGYIFSPYSIHWVRQAPGQGLEWIGYINPSTGYIEYNQHFKDRTTLTADKSTSTAYMELRSLRSEDTAVYYCARGGDYEGYFDYWGQGTTVTVSS
VL: DIQMTQSPSSLSASVGDRVTITCRLNENIYSFLAWYQQKPGKAPKLLVYNAETLAEDVPSRFSGSGSGTQFTLTISSLQPEDFATYYCQQHYGTPYTFGGGTKVEIK

Experiments:
[1] = molecular target: T1, recombinant human GM-CSF protein (human, UniProt P04141 18-144); experiment: ELISA
[2] = molecular target: T1, recombinant human GM-CSF protein; experiment: ELISA; remark: listed apart in the source

T1 sequence (P04141 18-144): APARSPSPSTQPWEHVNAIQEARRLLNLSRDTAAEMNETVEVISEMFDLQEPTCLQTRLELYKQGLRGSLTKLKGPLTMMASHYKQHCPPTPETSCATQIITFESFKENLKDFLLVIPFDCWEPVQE

| Binder | EC50 [1] | EC50 [2] |
| --- | --- | --- |
| B1 | 0.356 nM | – |
| B2 | – | 1.03 nM |
| B3 | – | 0.534 nM |
| B4 | 0.46 nM | – |
| B5 | 0.889 nM | – |
| B6 | – | 3.24 nM |
| B7 | – | 1.18 nM |
| B8 | 0.305 nM | – |
| B9 | – | 1.94 nM |
| B10 | – | 1.85 nM |
| B11 | – | 0.438 nM |
| B12 | 0.215 nM | – |
| B13 | – | 2.75 nM |
| B14 | – | 0.462 nM |
| B15 | 0.339 nM | – |
| B16 | – | 0.345 nM |
| B17 | 0.305 nM | – |
| B18 | 0.612 nM | – |
| B19 | – | 0.844 nM |
| B20 | 2.72 nM | – |
| B21 | – | 0.568 nM |
| B22 | 0.272 nM | – |
